B1: SALM3 LRR-Ig-Fn_(17-510) (domain or fragment, mouse, UniProt Q80XU8 17-510, looked up)
chain: CPLPCVCQNLSESLSTLCAHRGLLFVPPNVDRRTVELRLADNFIQALGPPDFRNMTGLVDLTLSRNAITRIGARSFGDLESLRSLHLDGNRLVELGSSSLRGPVNLQHLILSGNQLGRIAPGAFDDFLDSLEDLDVSYNNLRQVPWAGIGSMPALHTLNLDHNLIDALPPGVFAQLSQLSRLDLTSNRLATLAPDPLFSRGRDAEASPSPLVLSFSGNPLHCNCELLWLRRLARPDDLETCASPPTLAGRYFWAVPEGEFSCEPPLIARHTQRLWVLEGQRATLRCRALGDPVPTMHWVGPDDRLVGNSSRAWAFPNGTLEIGVTGAGDAGAYTCIATNPAGEATARVELRVLALPHGGNTSAEGGRPGPSDIAASARTAAEGEGTLESEPAVQVTEVTATSGLVSWGLGRPADPVWMFQIQYNSSEDETLIYRIVPASSHHFLLKHLVPGADYDLCLLALSPAAGPSDLTATRLLGCAHFSTLPATPLCHALQ
B2: SALM3 LRR-Ig_(17-367) (domain or fragment, mouse, UniProt Q80XU8 17-367, looked up)
chain: CPLPCVCQNLSESLSTLCAHRGLLFVPPNVDRRTVELRLADNFIQALGPPDFRNMTGLVDLTLSRNAITRIGARSFGDLESLRSLHLDGNRLVELGSSSLRGPVNLQHLILSGNQLGRIAPGAFDDFLDSLEDLDVSYNNLRQVPWAGIGSMPALHTLNLDHNLIDALPPGVFAQLSQLSRLDLTSNRLATLAPDPLFSRGRDAEASPSPLVLSFSGNPLHCNCELLWLRRLARPDDLETCASPPTLAGRYFWAVPEGEFSCEPPLIARHTQRLWVLEGQRATLRCRALGDPVPTMHWVGPDDRLVGNSSRAWAFPNGTLEIGVTGAGDAGAYTCIATNPAGEATARVELR
B3: SALM5 LRR-Ig_(18-376) (domain or fragment, mouse, UniProt Q8BXA0 18-376, looked up)
chain: QICPKRCVCQILSPNLATLCAKKGLLFVPPNIDRRTVELRLADNFVTNIKRKDFANMTSLVDLTLSRNTISFITPHAFADLRNLRALHLNSNRLTKITNDMFSGLSNLHHLILNNNQLTLISSTAFDDVFALEELDLSYNNLETIPWDAVEKMVSLHTLSLDHNMIDNIPKGTFSHLHKMTRLDVTSNKLQKLPPDPLFQRAQVLATSGIISPSTFALSFGGNPLHCNCELLWLRRLSREDDLETCASPALLTGRYFWSIPEEEFLCEPPLITRHTHEMRVLEGQRATLRCKARGDPEPAIHWISPEGKLISNATRSLVYDNGTLDILITTVKDTGAFTCIASNPAGEATQTVDLHIIK
B4: SALM1 LRR-Ig-Fn_(20-518) (domain or fragment, mouse, UniProt Q80TG9 20-518, looked up)
chain: ACPKYCVCQNLSESLGTLCPSKGLLFVPPDIDRRTVELRLGGNFIIHIGRQDFANMTGLVDLTLSRNTISHIQPFSFLDLESLRSLHLDSNRLPSLGEDTLRGLVNLQHLIVNNNQLGGIADDAFEDFLLTLEDLDLSYNNLHGLPWDSVRRMVNLHQLSLDHNLLDHIAEGTFADLQKLARLDLTSNRLQKLPPDPIFARSQASLLTATPFAPPLSFSFGGNPLHCNCELLWLRRLERDDDLETCGSPGSLKGRYFWHIREEEFVCEPPLITQHTHKLLVLEGQAATLKCKAIGDPSPLIHWVAPDDRLVGNSSRTAVYDNGTLDILITTSQDSGPFTCIAANAAGEATATVEVSIVQLPHLSNSTSRMAPPKSRLSDITGSSKTSRGGGGSGAGEPPKSTPERAVLVSDVTTTSALVKWSVSKSAPRVKMYQLQYNCSDDEVLIYRMIPASNKAFVVNNLVSGTGYDLCVLAMWDDTATTLTATNIVGCAQFFTKAD

What was measured:
[1] = biological target: Fc-tagged SALM3 LRR-Ig-Fn (mouse) (UniProt Q80XU8); assay: SPR
SEC-MALS = biological target: the molecule itself; assay: SEC-MALS
[2] = biological target: RPTPσ Ig1-3meB_(33-331) (mouse) (UniProt B0V2N1); assay: SEC-MALS

Molecule | fold lower affinity than for RPTPσ-meB [1] | stoichiometry N (SEC-MALS) | stoichiometry N (SALM3 per RPTPσ (2:1)) [2]
PTPσ Ig1-3_(33-327) (from UniProt B0V2N1 33-327) (domain or fragment) | 10 fold |  | 
B1 |  | 2 | 
B2 |  | 2 | 2
B3 |  | 2 | 
B4 |  | 2 | 

From paper doi:10.1101/225821 (bioRxiv, 2017)
